Measurements taken from patent publication US20180282719A1 (published 2018).

Columns and labels:
[1] = biological target: T1, recombinant soluble human IL-6 receptor (SR344) (human, UniProt P08887 20-344, biotinylated (sites not given) where immobilized via streptavidin or used in phage ELISA); experiment: SPR Biacore T100, integrated RU of SR344 bound over ten cycles, 37 C
T1 construct: also called soluble IL-6 receptor; membrane-type IL-6 receptor (when biotinylated and immobilized on the chip)
T1 sequence (looked up): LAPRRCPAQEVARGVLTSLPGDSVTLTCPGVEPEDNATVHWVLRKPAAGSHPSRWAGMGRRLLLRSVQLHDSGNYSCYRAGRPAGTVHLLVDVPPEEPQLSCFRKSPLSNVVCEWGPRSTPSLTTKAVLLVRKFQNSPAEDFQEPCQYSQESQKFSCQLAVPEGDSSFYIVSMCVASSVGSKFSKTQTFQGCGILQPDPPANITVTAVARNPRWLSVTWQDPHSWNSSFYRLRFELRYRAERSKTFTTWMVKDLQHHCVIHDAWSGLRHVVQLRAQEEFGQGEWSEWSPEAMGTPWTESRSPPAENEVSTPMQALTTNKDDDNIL
Method: The produced pH-dependent binding clones described above were analyzed using a Biacore T100™ surface plasmon resonance system (GE Healthcare) for their ability to bind to the antigen SR344 multiple times at pH 5.8 and pH 7.4. More specifically, the analysis was carried out as follows. All the measurements were carried out at 37° C. First, the sample antibodies described above were bound onto a recomb-protein A/G (Pierce)-immobilized sensor chip by amine-coupling, where the mobile phase buffer was 10 mM MES (pH 5.8), 150 mM NaCl, and 0.05% TWEEN® 20 (polyoxyethelene sorbitan monolaurate) (step 1). SR344 adjusted to a concentration of about 40 nM was injected as an analyte for 3 minutes at pH 7.4 and allowed to bind (the buffer for injected SR344 was 10 mM MES (pH 7.4), 150 mM NaCl, and 0.05% TWEEN® 20 (polyoxyethelene sorbitan monolaurate)) (step 2). Subsequently, the injection of SR344 was discontinued and a mobile phase of pH 5.8 was allowed to flow for about 70 seconds to expose the antibody/SR344 complex under acidic conditions (step 3). Ten sets of this binding (step 2)/acidity exposure (step 3) process were continuously repeated to observe the sensorgram in real-time, which is shown in FIG. 11. […] In the 10-set repetition of the binding (step 2) and acidic exposure (step 3), almost all H170/L82 and CLH5/L73 antibodies were able to bind to new antigens in each set. […]

[2] = biological target: T1, recombinant soluble human IL-6 receptor …; experiment: SPR Biacore T100, antibody captured by anti-IgG gamma chain F(ab)2, SR344 analyte, pH 7.4, 37 C
Method: Kinetic analyses of antigen-antibody reactions at pH 7.4 were carried out on the four types of antibodies, i.e., the humanized PM1 antibody (wild type: WT), and […], H3pI/L73-IgG1, Fv2-IgG1, and Fv4-IgG1 constructed in Examples 2 and 10, by using a Biacore T100™ surface plasmon resonance system (GE Healthcare) (buffer: 10 mM MES (pH 7.4), 150 mM NaCl, 0.05% TWEEN® 20 (polyoxyethelene sorbitan monolaurate)). Each antibody was bound on a sensor chip on which an anti-IgG γ chain specific F(ab)₂ (Pierce) was immobilized by amine coupling, and then, SR344 adjusted to a concentration of 9.8 to 40 nM was injected thereto as an analyte. The association to and dissociation from SR344 were observed on a real-time basis for the pH-dependent-binding clones. All the measurements were carried out at 37° C. Association rate constants kₐ (1/Ms) and dissociation rate constants kd (1/s) were calculated using Biacore T100™ Evaluation Software (GE Healthcare), and dissociation constants KD (M) were calculated on the basis of those values (Table 7).
The association to and dissociation from SR344 were observed on a real-time basis using the same method as Example 10 for the eleven types of antibodies, humanized PM1 antibody (wild type: WT) and H3pI/L73-IgG1, Fv1-M71, Fv1-M73, Fv2-IgG1, Fv3-M71, Fv3-M73, Fv4-IgG1, Fv4-IgG2, Fv4-M58, and Fv4-M73, constructed as described above. The association rate constants kₐ (1/Ms) and dissociation rate constants kd. (1/s) were calculated by analysis in the same manner, and the dissociation constants KD (M) were calculated on the basis of those values (Table 11).

[3] = biological target: T1, recombinant soluble human IL-6 receptor …; experiment: SPR Biacore T100, biotinylated SR344 on streptavidin chip (model of membrane-type IL-6 receptor), antibody as analyte, 37 C
Method: (§1) Binding to the membrane-type IL-6 receptor was evaluated by evaluating binding to the IL-6 receptor immobilized on a sensor chip. SR344 was biotinylated in accordance with a method known among persons with ordinary skill in the art, and the biotinylated SR344 was immobilized on the sensor chip via streptavidin using the affinity between streptavidin and biotin. All the measurements were carried out at 37° C. The mobile phase buffer was 10 mM MES (pH 5.8), 150 mM NaCl and 0.05% TWEEN® 20 (polyoxyethelene sorbitan monolaurate).
(§2) The pH-dependently-binding clones were injected under the condition of pH 7.4 to allow them to bind to SR344, and then, the pH-dependent dissociation of each clone at the pH of the mobile phase, pH 5.8, was observed. The results are shown in FIG. 21 (results for Fv1-M71, Fv1-M73, Fv3-M71, and Fv3-M73 are shown in FIG. 21, while results for other clones are shown in FIGS. 17 and 19). Analyses were carried out in the same manner as in Example 10 and the pH dependencies of the dissociation rate constants of all of the eleven types of clones are shown in Table 12.

[4] = biological target: T1, recombinant soluble human IL-6 receptor …; experiment: SPR Biacore T100, biotinylated SR344 on streptavidin chip (model of membrane-type IL-6 receptor), antibody as analyte, bound at pH 7.4, dissociation at pH 5.8, 37 C
Method: as §1, §2

[5] = biological target: T1, recombinant soluble human IL-6 receptor …; experiment: SPR Biacore T100, biotinylated SR344 on streptavidin chip (model of membrane-type IL-6 receptor), antibody as analyte, bound at pH 7.4, dissociation at pH 7.4, 37 C
Method: as §1, §2

B1: H170/L82 (antibody, IgG1, V domains shown)
VH: QVQLQESGPGLVKPSETLSLTCAVSGHSISHHHAHSWVRQPPGEGLEWIGYISYSGITHYNPHLKGRVTISRDTSKNQFSLKLSSVTAADTAAYYCARVLARITAMDHWGEGTLVTVSS
VL: DIQMTQSPSSLSASVGDSVTITCQASQDISSHLNWYQQKPGKAPELLIYYGSHLHSGVPSRFSGSGSGTDFTFTISSLEAEDAATYYCGQGNRLPYTFGQGTKVEIE
notes: expressed and purified as IgG (IgG1); also called H170/L82-IgG1
B1 was tested, and the “total amount of antigen bound over ten cycles relative to WT” value [1] was roughly 4 fold.

B2: Fv4-IgG1 (antibody)
heavy: not shown
light: DIQMTQSPSSLSASVGDSVTITCQASTDISSHLNWYQQKPGKAPELLIYYGSHLLSGVPSRFSGSGSGTDFTFTISSLEAEDAATYYCGQGNRLPYTFGQGTKVEIERTVAAPSVFIFPPSDEQLKSGTASVVCLLNNFYPREAKVQWKVDNALQSGNSQESVTEQDSKDSTYSLSSTLTLSKADYEKHKVYACEVTHQGLSSPVTKSFNRGEC
notes: VH3-IgG1 / VL3-CK
In the case of B2, the Kd [2] is reported as 1.4 nM, the koff [2] is reported as 0.001 s⁻¹ and the kon [2] is reported as 720000 M⁻¹ s⁻¹. The “kd (pH 5.8)/kd (pH 7.4)” value [3] was 5.56, the koff [4] was 0.0026 s⁻¹ and the koff [5] was 0.00047 s⁻¹.
